The text below walks through data of PMC4588886, “A link between magnesium-chelatase H subunit and sucrose nonfermenting 1 (SNF1)-related protein kinase SnRK2.6/OST1 in Arabidopsis guard cell signalling in response to abscisic acid” (Journal of Experimental Botany, 2015).

For test [1], the target named is T1, GST-tagged C-terminal half of ABAR protein (aa 681-1381) (Arabidopsis thaliana, UniProt Q9FNB0 681-1381).
T1 chain: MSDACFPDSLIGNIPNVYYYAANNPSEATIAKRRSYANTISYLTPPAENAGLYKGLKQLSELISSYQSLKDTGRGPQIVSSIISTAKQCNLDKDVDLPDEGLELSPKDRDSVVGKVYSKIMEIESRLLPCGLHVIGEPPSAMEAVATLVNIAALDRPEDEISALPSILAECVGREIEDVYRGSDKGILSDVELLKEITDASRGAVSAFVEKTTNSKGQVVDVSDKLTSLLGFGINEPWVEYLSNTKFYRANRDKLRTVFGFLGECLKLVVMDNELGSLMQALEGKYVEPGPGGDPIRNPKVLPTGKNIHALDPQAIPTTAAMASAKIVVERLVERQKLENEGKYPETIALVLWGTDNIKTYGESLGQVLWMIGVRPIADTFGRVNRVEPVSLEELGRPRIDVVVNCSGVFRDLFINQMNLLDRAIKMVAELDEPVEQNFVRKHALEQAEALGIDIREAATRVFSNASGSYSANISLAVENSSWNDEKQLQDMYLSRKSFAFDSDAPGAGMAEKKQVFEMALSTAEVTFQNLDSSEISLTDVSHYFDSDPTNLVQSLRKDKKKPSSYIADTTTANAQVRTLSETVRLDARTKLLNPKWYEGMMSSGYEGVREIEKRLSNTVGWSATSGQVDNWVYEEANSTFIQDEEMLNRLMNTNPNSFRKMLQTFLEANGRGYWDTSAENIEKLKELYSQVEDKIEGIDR
Kind of test: SPR. In general terms: SPR reads the build-up and loss of mass on a sensor chip optically.

For test [2], the target named is T2, GST-tagged C-terminal half of ABAR protein (aa 681-1381) (Arabidopsis thaliana, UniProt Q9FNB0 681-1381).
T2 construct: Cloned into pGEX-4T-1; also called GST-ABAR; recombinant truncated ABAR protein; source: E. coli BL21(DE3), purified (Sepharose 4B)
T2 sequence (looked up): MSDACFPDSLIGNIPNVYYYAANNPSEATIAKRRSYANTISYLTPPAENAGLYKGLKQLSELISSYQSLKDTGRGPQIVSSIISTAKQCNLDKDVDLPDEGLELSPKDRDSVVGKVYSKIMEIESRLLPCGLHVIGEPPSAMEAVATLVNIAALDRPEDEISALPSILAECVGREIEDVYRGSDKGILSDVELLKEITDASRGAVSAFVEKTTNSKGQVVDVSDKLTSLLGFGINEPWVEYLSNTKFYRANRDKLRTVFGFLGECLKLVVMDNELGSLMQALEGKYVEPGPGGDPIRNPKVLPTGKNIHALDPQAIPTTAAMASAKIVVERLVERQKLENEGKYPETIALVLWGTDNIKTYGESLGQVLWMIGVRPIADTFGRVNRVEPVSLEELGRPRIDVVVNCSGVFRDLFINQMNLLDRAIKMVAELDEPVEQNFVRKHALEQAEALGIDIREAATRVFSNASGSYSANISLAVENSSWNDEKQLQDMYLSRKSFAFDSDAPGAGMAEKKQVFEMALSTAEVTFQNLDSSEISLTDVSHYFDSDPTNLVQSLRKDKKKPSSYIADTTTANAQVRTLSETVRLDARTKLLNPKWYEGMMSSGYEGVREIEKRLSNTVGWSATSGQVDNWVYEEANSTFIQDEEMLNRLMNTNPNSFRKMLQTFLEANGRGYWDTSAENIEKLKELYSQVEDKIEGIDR
Kind of test: pull-down; GST-tagged ABAR (aa 681-1381, 1 ug) or GST alone added to E. coli lysate expressing His-tagged OST1; glutathione-sepharose 4B beads, 4 °C, 12 h; 10 mM Tris-HCl pH 7.5, 200 mM NaCl, 10% glycerol; blot with anti-His. The conditions noted are these: one partner purified.

B1: His-tagged OST1 protein (recombinant, full-length ORF) (enzyme, Arabidopsis thaliana, UniProt Q940H6 1-362, looked up)
chain: MDRPAVSGPMDLPIMHDSDRYELVKDIGSGNFGVARLMRDKQSNELVAVKYIERGEKIDENVKREIINHRSLRHPNIVRFKEVILTPTHLAIVMEYASGGELFERICNAGRFSEDEARFFFQQLISGVSYCHAMQVCHRDLKLENTLLDGSPAPRLKICDFGYSKSSVLHSQPKSTVGTPAYIAPEVLLKKEYDGKVADVWSCGVTLYVMLVGAYPFEDPEEPKNFRKTIHRILNVQYAIPDYVHISPECRHLISRIFVADPAKRISIPEIRNHEWFLKNLPADLMNDNTMTTQFDESDQPGQSIEEIMQIIAEATVPPAGTQNLNHYLTGSLDIDDDMEEDLESDLDDLDIDSSGEIVYAM
notes: SNF1-related protein kinase SnRK2.6/OST1/SRK2E, Arabidopsis thaliana, At4g33950, full-length ORF; Cloned into pET-48b(+); also called recombinant OST1; SnRK2.6; source: E. coli BL21(DE3): in cell lysate (pull-down); purified (Ni-NTA agarose)
Consider B1, for which the Kd in test [1] was about 0.0714 µM. Also, the binding result in test [2] is recorded as “binds”.

Usually Kd stands for the equilibrium constant for the complex coming apart. A low value points to a tighter complex.
